Assay results as given in the supplement of paper PMC6755084.

B1: minF1; the commonest letter at each place (parent)
chain: GAGACCGCAACTGAAAAGTTGTTATCAGAAATGGATGGGTTGAATTTCTGCACGTAGAAGCAAAAGGC

Variants of: B1
Assay: fraction ligated after 30 min (ligated reads / total reads); higher = more ligase activity
Conditions: with F1*subA RNA substrate (template-directed ligation), 42 °C
Procedure, shortened: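 Using barcoded primers for reverse transcription and a MiSeq for sequencing, gel-separated ligated and unligated RNAs of minimized ligase ribozyme variants were read, with core-base filtering at quality ≥30. Fraction ligated per variant was defined as ligated reads over total reads.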

Going from A35C A43C to A35C A43G, the fraction ligated rises from 0.00377 to 0.00754.

First: A35C A43T
Second: G34A A35G
The fraction ligated of the first is lower: 0.00614 for the first, 0.00813 for the second.

First: G34A A35T
Second: G34A A35C
The fraction ligated of the first is higher: 0.0147 for the first, 0.00719 for the second.

First: G34C G37A
Second: G34C G37T
The fraction ligated of the first is lower: 0.00257 for the first, 0.00343 for the second.

Compared with G34C G37C, G33T G42C is higher in fraction ligated: 0.00307 for the first, 0.0103 for the second.

First: G33T G42A
Second: G33T G42T
The fraction ligated of the first is higher: 0.0913 for the first, 0.0256 for the second.

Going from G34T T36G to G34T T36A, the fraction ligated rises from 0.00275 to 0.00722.

First: G34T T36C
Second: A30T A44T
The fraction ligated of the first is lower: 0.00276 for the first, 0.693 for the second.

Going from A30T A44C to A30T A44G, the fraction ligated rises from 0.52 to 0.68.

First: A31G G33C
Second: A31G G33T
The fraction ligated of the first is higher: 0.765 for the first, 0.567 for the second.

Going from A31G G33A to T32C T36C, the fraction ligated falls from 0.811 to 0.00318.

First: T32C T36A
Second: T32C T36G
The fraction ligated of the first is lower: 0.00145 for the first, 0.00825 for the second.

Going from G33T to G33C, the fraction ligated rises from 0.605 to 0.804.

Compared with G33A, T32G A43T is lower in fraction ligated: 0.817 for the first, 0.0529 for the second.

Going from T32G A43G to T32G A43C, the fraction ligated falls from 0.196 to 0.00832.

Going from A35C to G34C G42C, the fraction ligated falls from 0.0267 to 0.00271.

Compared with G34C G42A, G34C G42T is higher in fraction ligated: 0.00229 for the first, 0.00284 for the second.

Going from A31G G42A to A31G G42T, the fraction ligated falls from 0.367 to 0.126.

Compared with A31G G42C, G33A G34C is lower in fraction ligated: 0.0118 for the first, 0.00342 for the second.

Going from G33A G34A to G33A G34T, the fraction ligated falls from 0.334 to 0.00656.

Going from A35C G37C to A35C G37T, the fraction ligated rises from 0.00352 to 0.00578.

First: A35C G37A
Second: A30G G42C
The fraction ligated of the first is lower: 0.00266 for the first, 0.0189 for the second.

Compared with A30G G42T, A30G G42A is higher in fraction ligated: 0.215 for the first, 0.487 for the second.

Going from G33T A35T to G33T A35C, the fraction ligated falls from 0.0191 to 0.0181.

First: G33T A35G
Second: G33A G37T
The fraction ligated of the first is higher: 0.0792 for the first, 0.0175 for the second.

First: G33A G37C
Second: G33A G37A
The fraction ligated of the first is lower: 0.00669 for the first, 0.00769 for the second.

First: G34C
Second: G34A
The fraction ligated of the first is lower: 0.00469 for the first, 0.0464 for the second.

First: G34T
Second: A31T G33T
The fraction ligated of the first is lower: 0.00484 for the first, 0.467 for the second.

Going from A31T G33C to A31T G33A, the fraction ligated rises from 0.689 to 0.755.

First: A31T A43C
Second: A31T A43T
The fraction ligated of the first is lower: 0.157 for the first, 0.215 for the second.

Going from A31T A43G to A31C G33T, the fraction ligated rises from 0.157 to 0.355.

Compared with A31C G33C, A31C G33A is higher in fraction ligated: 0.653 for the first, 0.767 for the second.

Going from A31T G34C to A31T G34T, the fraction ligated rises from 0.00659 to 0.0067.

First: A31T G34A
Second: G33A G42C
The fraction ligated of the first is higher: 0.071 for the first, 0.0145 for the second.

Going from G33A G42A to G33A G42T, the fraction ligated falls from 0.228 to 0.102.

Going from T32C A44C to T32C A44T, the fraction ligated rises from 0.0116 to 0.0253.

Compared with T32C A44G, A31C A44T is higher in fraction ligated: 0.0172 for the first, 0.794 for the second.

Going from A31C A44C to A31C A44G, the fraction ligated rises from 0.655 to 0.754.

Going from G34A A43T to G34A A43C, the fraction ligated falls from 0.00502 to 0.00464.

First: G34A A43G
Second: A31G G34C
The fraction ligated of the first is lower: 0.00716 for the first, 0.00824 for the second.

First: A31G G34T
Second: A31G G34A
The fraction ligated of the first is lower: 0.00852 for the first, 0.0934 for the second.

Compared with G33T A43C, G33T A43T is higher in fraction ligated: 0.0254 for the first, 0.0265 for the second.

Compared with G33T A43G, A35C A44C is lower in fraction ligated: 0.0169 for the first, 0.00567 for the second.

First: A35C A44T
Second: A35C A44G
The fraction ligated of the first is higher: 0.0114 for the first, 0.00784 for the second.

First: A30G T36A
Second: A30G T36G
The fraction ligated of the first is lower: 0.0286 for the first, 0.0634 for the second.

Going from A30G T36C to G34T A35G, the fraction ligated falls from 0.0152 to 0.0067.

First: G34T A35C
Second: G34T A35T
The fraction ligated of the first is lower: 0.00324 for the first, 0.00561 for the second.

Compared with A31T T32C, A31T T32A is higher in fraction ligated: 0.0483 for the first, 0.0898 for the second.

First: A31T T32G
Second: A30T T32G
The fraction ligated of the first is higher: 0.0242 for the first, 0.0154 for the second.

Compared with A30T T32C, A30T T32A is higher in fraction ligated: 0.0167 for the first, 0.0346 for the second.

First: G34C T36G
Second: G34C T36A
The fraction ligated of the first is higher: 0.00561 for the first, 0.00257 for the second.

Going from G34C T36C to T32G T36C, the fraction ligated falls from 0.00419 to 0.00404.

Going from T32G T36G to T32G T36A, the fraction ligated falls from 0.00871 to 0.00414.

First: A30G T32A
Second: A30G T32C
The fraction ligated of the first is higher: 0.108 for the first, 0.0409 for the second.

First: A30G T32G
Second: G34C A44C
The fraction ligated of the first is higher: 0.0298 for the first, 0.00339 for the second.

Compared with G34C A44G, G34C A44T is higher in fraction ligated: 0.00318 for the first, 0.00566 for the second.

Compared with G34T A44T, G34T A44C is lower in fraction ligated: 0.00748 for the first, 0.00445 for the second.

First: G34T A44G
Second: T32A T36A
The fraction ligated of the first is higher: 0.00592 for the first, 0.00173 for the second.

Going from T32A T36C to T32A T36G, the fraction ligated rises from 0.00204 to 0.00433.

Going from T32A A44C to T32A A44T, the fraction ligated rises from 0.0377 to 0.163.

Going from T32A A44G to G33T A44G, the fraction ligated rises from 0.0595 to 0.249.

Compared with G33T A44T, G33T A44C is lower in fraction ligated: 0.299 for the first, 0.149 for the second.

Compared with A31G A35C, A31G A35G is higher in fraction ligated: 0.022 for the first, 0.294 for the second.

First: A31G A35T
Second: G33C A35C
The fraction ligated of the first is higher: 0.0156 for the first, 0.0133 for the second.

Going from G33C A35G to G33C A35T, the fraction ligated falls from 0.0844 to 0.0199.

Going from A31T G42A to A31T G42T, the fraction ligated falls from 0.495 to 0.193.

Going from A31T G42C to G33C G34A, the fraction ligated rises from 0.0234 to 0.18.

First: G33C G34T
Second: G33C G34C
The fraction ligated of the first is higher: 0.00568 for the first, 0.00483 for the second.

Going from A30T T36A to A30T T36C, the fraction ligated falls from 0.0264 to 0.0213.

Compared with A30T T36G, A31T G37C is lower in fraction ligated: 0.0328 for the first, 0.00621 for the second.

Going from A31T G37T to A31T G37A, the fraction ligated falls from 0.0157 to 0.00615.

First: A30T G34T
Second: A30T G34A
The fraction ligated of the first is lower: 0.00578 for the first, 0.0989 for the second.

First: A30T G34C
Second: A30T G37A
The fraction ligated of the first is lower: 0.00584 for the first, 0.00958 for the second.

First: A30T G37C
Second: A30T G37T
The fraction ligated of the first is lower: 0.0041 for the first, 0.0219 for the second.

First: T32G A35G
Second: T32G A35T
The fraction ligated of the first is higher: 0.00546 for the first, 0.00401 for the second.

Going from T32G A35C to A31C A43C, the fraction ligated rises from 0.00432 to 0.0314.

Going from A31C A43G to A31C A43T, the fraction ligated rises from 0.0644 to 0.0946.

Going from T32C G34A to T32C G34C, the fraction ligated rises from 0.00321 to 0.00341.

Going from T32C G34T to T32C A43C, the fraction ligated rises from 0.00428 to 0.00725.

First: T32C A43T
Second: T32C A43G
The fraction ligated of the first is lower: 0.00881 for the first, 0.0128 for the second.

Going from T32A G34C to T32A G34T, the fraction ligated rises from 0.0031 to 0.00436.

Going from T32A G34A to G33T T36A, the fraction ligated rises from 0.00575 to 0.0253.

First: G33T T36G
Second: G33T T36C
The fraction ligated of the first is higher: 0.0372 for the first, 0.0104 for the second.

With T32G G33C the fraction ligated was 0.00893.
